Assay results taken from US20100120700A1, “METHODS AND COMPOSITIONS FOR TREATING CERVICAL CANCER” (priority 2000, published 2010).
“Also recorded” adds a separate entry of the source.

Assays:
[1] = test system: c-JUN N-terminal kinase (JNK); assay: Jun kinase assay in microinjected Xenopus oocytes; format: cell-based; set-up: inhibition of HPV16 E6-dependent JNK activation by co-injected peptide: dose or concentration left out as unconfirmed; details: Xenopus oocytes; for JNK activation by microinjected E6 fusion protein: MBP-E6 or GST-E6 protein (100 nM, 3h), GST-Jun phosphorylation
Protocol: Experimental Design: This experiment was divided into two phases. In the first phase, an MBP-E6 fusion protein (HPV16; see example 4) was microinjected into Xenopus oocytes at different concetrations and then the oocytes were assayed for INK activity. In the second phase, peptides corresponding to the C-termini of non-oncogenic E6 protein (HPV11), HPV16 E6 (oncogenic) or Tax (shown to block oncogenic E6 binding to PDZ domains, FIG. 3) were co-injected with an activating amount of MBP-E6 fusion protein to assess ther abilities to block JNK activation.
Isolation and Microinjection of Oocytes—Xenopus ovarian tissue was surgically removed, and oocytes were defolliculated for 1-1.5 h at room temperature with 2 mg/ml collagenase and 0.5 mg/ml polyvinylpyrrolidone in Ca21-free modified Barth's solution (88 mM NaCl, 1 mM KCl, 0.82 mM MgSO4, 2.4 mM NaHCO3, 10 mM HEPES, pH 7.5). The oocytes were then washed four times with modified Barth's solution. Stage VI oocytes were sorted manually and incubated at 16° C. for at least 10 h in OR2 solution (82.5 mM NaCl, 2.5 mM KCl, 1 mM CaCl2, 1 mM Na2HPO4, 5 mM HEPES, pH 7.5) supplemented with 1 mg/ml bovine serum albumin and […] gentamicin. Immature oocytes were microinjected with purified MBP-E6 protein or E6 protein and peptide and transferred to fresh OR2 for the duration of the time course. Five oocytes were collected per time point, frozen on dry ice, and stored at −80° C.
Lysis of Oocytes, Eggs, and Embryos—Frozen oocytes, eggs, and embryos were thawed rapidly and lysed by pipetting up and down in 60 ml of ice-cold extraction buffer (EB) (0.25 M sucrose, 0.1 M NaCl, 2.5 mM MgCl2, 20 mM HEPES, pH 7.2) containing 10 mM EDTA, protease inhibitors (10 mg/ml leupeptin, 10 mg/ml pepstatin, 10 mg/ml aprotinin, 1 mM phenylmethylsulfonyl fluoride), and phosphatase inhibitors (50 mM 2-glycerophosphate, 1 mM sodium orthovanadate, 2 mM microcystin). Samples were clarified by centrifugation for 2.5 min in a Beckman E microcentrifuge with a right angle rotor. Crude cytoplasm was collected and processed for immunoblotting or kinase assays, as described below.
Jun Kinase Assay—Jun kinase assays were performed as described. Crude oocyte, egg, or embryo cytoplasm was diluted 1:1 in EB and pre-cleared with 20 ml of glutathione-Sepharose beads (Amersham Pharmacia Biotech) for 1 h at 4° C. with moderate shaking. Lysates were incubated with glutathione S-transferase GST-c-Jun-(1-79) fusion protein (hereafter denoted GST-Jun) immobilized on glutathione- Sepharose beads. After 3 h at 4° C., the beads were washed three times with 50 mM HEPES, pH 7.5, 150 mM NaCl, 1% Triton X-100, 1 mM EDTA, 10% glycerol, 10 mM sodium pyrophosphate, 2 mM sodium orthovanadate, 10 mM sodium fluoride, 1 mM phenylmethylsulfonyl fluoride, and 10 mg/ml aprotinin (24) and once with 0.4 ml of kinase buffer (20 mM HEPES, pH 7.5, 10 mM MgCl2, 1 mM dithiothreitol, 200 mM sodium orthovanadate). The bound JNK activity was detected by the addition of 1 mCi of [g-32]JATP. The reaction was terminated after 20 min at 30° C., and the products were resolved by SDS-PAGE. The gels were transferred to PVDF membranes (Hybond; Amersham Pharmacia Biotech) and the incorporation of [32P]phosphate into GST-Jun was visualized by autoradiography. […]

[2] = biological target: T1, HPV16 E6/TIP 1 interaction (Homo sapiens, UniProt O14907); assay: Modified G assay, inhibition of TIP1-HPV E6 16 binding; details: HPV E6 16 peptide 10 uM, TIP1 fusion protein 5 ug/mL, Tax peptide 0.001-100 uM, FIG. 3
T1 construct: made in house; host or cells: E. coli
T1 sequence (O14907 14-116): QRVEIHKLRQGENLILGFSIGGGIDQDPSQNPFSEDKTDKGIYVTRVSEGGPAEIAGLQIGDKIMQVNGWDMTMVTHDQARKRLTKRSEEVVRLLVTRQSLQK
Protocol: In one embodiment (in which a G assay is used), one or more PDZ domain-containing GST-fusion proteins are bound to the surface of wells of a 96-well plate as described supra (with appropriate controls including nonfusion GST protein). All fusion proteins are bound in multiple wells so that appropriate controls and statistical analysis can be done. A test compound in BSA/PBS (typically at multiple different concentrations) is added to wells. Immediately thereafter, 30 uL of a detectably labeled (e.g., biotinylated) peptide known to bind to the relevant PDZ domain (see, e.g., TABLE 3) is added in each of the wells at a final concentration of, e.g., between about 2 uM and about 40 uM, typically 5 uM, 15 uM, or 25 uM. […] The surface is washed free of unbound peptide three times with ice cold PBS and the amount of binding of the peptide in the presence and absence of the test compound is determined. Usually, the level of binding is measured for each set of replica wells (e.g. duplicates) by subtracting the mean GST alone background from the mean of the raw measurement of peptide binding in these wells. […]
Protocol • 1. […] Take early readings, if necessary, at 650 nm • 17. At 30 minutes, stop reaction with 100 ul of 0.18M H2SO4, and take final reading at 450 nm […]

How did the “JNK activation by microinjected E6 fusion protein” value [1] turn out when “HPV18 E6: recombinant GST-E6 fusion protein of HPV18 microinjected into Xenopus oocytes” was run?
The value was “activated the JNK MAPK pathway in the oocyte”.

What does the source list for “Tax PL peptide: unlabeled peptide corresponding to the C-terminus of Tax, an independent PDZ ligand that binds similar PDZ domains (QISPGGLEPPSEKHFRETEV)”?
inhibition of binding between TIP1 and HPV E6 16 (A450) [2]: decrease binding between TIP1 and HPV E6 16; inhibition of binding between TIP1 and HPV E6 16 (A450) ([2]; listed as Tax peptide): Inhibition of the interaction between HPV E6 16 and TIP1; inhibition of HPV16 E6-dependent JNK activation by co-injected peptide ([1]; co-injected with activating amount of HPV16 E6 fusion protein): can be inhibited by co-injection

B1: HPV16 E6: recombinant full length HPV16 E6 fusion protein (MBP-E6 or GST-E6) microinjected into Xenopus oocytes (protein)
chain: MHQKRTAMFQDPQERPRKLPQLCTELQTTIHDIILECVYCKQQLLRREVYDFAFRDLCIVYRDGNPYAVCDKCLKFYSKISEYRHYCYSLYGTTLEQQYNKPLCDLLIRCINCQKPLCPEEKQRHLDKKQRFHNIRGRWTGRCMSCCRSSRTRRETQL
Which results are given for B1?
JNK activation by microinjected E6 fusion protein [1]: activates c-JUN N-terminal kinase; also recorded: activated the JNK MAPK pathway in the oocyte; JNK activation by microinjected E6 fusion protein ([1]; listed as HPV E6 16): activates c-JUN N-terminal kinase (JNK)
